Results published in paper PMC4879639 (2016).

T1: recombinant mouse sortilin (mouse, UniProt Q6PHU5 74-754)
T1 chain: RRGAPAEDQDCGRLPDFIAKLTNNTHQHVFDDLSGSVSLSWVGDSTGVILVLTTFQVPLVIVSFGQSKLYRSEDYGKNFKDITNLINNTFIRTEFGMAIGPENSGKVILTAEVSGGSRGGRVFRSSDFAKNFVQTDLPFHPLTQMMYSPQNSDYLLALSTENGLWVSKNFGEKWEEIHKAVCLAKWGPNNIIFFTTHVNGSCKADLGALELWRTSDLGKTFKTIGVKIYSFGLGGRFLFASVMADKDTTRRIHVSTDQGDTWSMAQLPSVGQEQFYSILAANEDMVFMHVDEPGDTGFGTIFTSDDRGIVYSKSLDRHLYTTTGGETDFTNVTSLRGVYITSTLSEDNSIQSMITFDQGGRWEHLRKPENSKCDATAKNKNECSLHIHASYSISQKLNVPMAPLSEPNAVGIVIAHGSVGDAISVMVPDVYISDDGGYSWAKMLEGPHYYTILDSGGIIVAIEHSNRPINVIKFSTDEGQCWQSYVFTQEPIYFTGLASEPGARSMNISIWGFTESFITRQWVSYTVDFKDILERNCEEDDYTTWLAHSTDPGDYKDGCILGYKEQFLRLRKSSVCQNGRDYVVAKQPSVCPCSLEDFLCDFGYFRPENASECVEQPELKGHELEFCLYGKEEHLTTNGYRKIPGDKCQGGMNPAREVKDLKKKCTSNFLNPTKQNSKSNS


Target: T1, recombinant mouse sortilin
Assay: SPR

| Binder | Kd [nM] |
| --- | --- |
| recombinant IFN-γ (ligand) HGTVIESLESLNNYFNSSGIDVEEKSLFLDIWRNWQKDGDMKILQSQIISFYLRLFEVLKDNQAISNNISVIESHLITTFFSNSKAKKDAFMSIAKFEVNNPQVQRQAFNELIRVVHQLLPESSLRKRKRSRC | 2600 |
| GST-fused mouse IFN-α (ligand) CDLPHTYNLRNKRALKVLAQMRRLPFLSCLKDRQDFGFPLEKVDNQQIQKAQAIPVLRDLTQQTLNLFTSKASSAAWNATLLDSFCNDLHQQLNDLQTCLMQQVGVQEPPLTQEDALLAVRKYFHRITVYLREKKHSPCAWEVVRAEVWRALSSSVNLLPRLSEEKE | 550 |
| recombinant IL-6 (ligand) FPTSQVRRGDFTEDTTPNRPVYTTSQVGGLITHVLWEIVEMRKELCNGNSDCMNNDDALAENNLKLPEIQRNDGCYQTGYNQEICLLKISSGLLEYHSYLEYMKNNLKDNKKDKARVLQRDTETLIHIFNQEVKDLHKIVLPTPISNALLTDKLESQKEWLRTKTIQFILKSLEEFLKVTLRSTRQT | 1100 |

The next lines start with the values.

| Kd [nM] | Binder |
| --- | --- |
| 287 | recombinant IL-10 (ligand) SRGQYSREDNNCTHFPVGQSHMLLELRTAFSQVKTFFQTKDQLDNILLTDSLMQDFKGYLGCQALSEMIQFYLVEVMPQAEKHGPEIKEHLNSLGEKLKTLRMRLRRCHRFLPCENKSKAVEQVKSDFNKLQDQGVYKAMNEFDIFINCIEAYMMIKMKS |
| 335 | recombinant IL-17A (ligand) AAIIPQSSACPNTEAKDFLQNVKVNLKVFNSLGAKVSSRRPSDYLNRSTSPWTLHRNEDPDRYPSVIWEAQCRHQRCVNAEGKLDHHMNSVLIQQEILVLKREPESCPFTFRVEKMLVGVGCTCVASIVRQAA |
| 13.6 | recombinant IL-12 (complex) chain 1: RVIPVSGPARCLSQSRNLLKTTDDMVKTAREKLKHYSCTAEDIDHEDITRDQTSTLKTCLPLELHKNESCLATRETSSTTRGSCLPPQKTSLMMTLCLGSIYEDLKMYQTEFQAINAALQNHNHQQIILDKGMLVAIDELMQSLNHNGETLRQKPPVGEADPYRVKMKLCILLHAFSTRVVTINRVMGYLSSA chain 2: MWELEKDVYVVEVDWTPDAPGETVNLTCDTPEEDDITWTSDQRHGVIGSGKTLTITVKEFLDAGQYTCHKGGETLSHSHLLLHKKENGIWSTEILKNFKNKTFLKCEAPNYSGRFTCSWLVQRNMDLKFNIKSSSSSPDSRAVTCGMASLSAEKVTLDQRDYEKYSVSCQEDVTCPTAEETLPIELALEARQQNKYENYSTSFFIRDIIKPDPPKNLQMKPLKNSQVEVSWEYPDSWSTPHSYFSLKFFVRIQRKKEKMKETEEGCNQKGAFLVEKTSTEVQCKGGNVCVQAQDRYYNSSCSKWACVPCRVRS |
